Data from patent US20240343791A1.

How the values were obtained:
[1] = biological target: human VEGFA (Cat. No. Z03073, Genscript) (human) (UniProt P15692); test: competition ELISA: plate coated with Eylea, Conbercept in dilution series pre-incubated with 5 nM VEGFA, VEGFA bound to Eylea detected. The sheet prints ng/mL, the text prints nM
[2] = biological target: human VEGFA (Cat. No. Z03073, Genscript) (human) (UniProt P15692); test: competition ELISA, Eylea coated as competitor, 5 nM VEGFA dimer pre-incubated with Conbercept
[3] = biological target: human VEGFA (Cat. No. Z03073, Genscript) (human) (UniProt P15692); test: SPR (Biacore), protein captured on protein A chip, VEGFA as analyte, 25 C
[4] = biological target: human VEGFA (Cat. No. Z03073, Genscript) (human) (UniProt P15692); test: ELISA, plate coated with VEGFA, detection with HRP anti-human IgG
[5] = biological target: human VEGFA (Cat. No. Z03073, Genscript) (human) (UniProt P15692)

Sequence of Eylea (Fc fusion) (chain): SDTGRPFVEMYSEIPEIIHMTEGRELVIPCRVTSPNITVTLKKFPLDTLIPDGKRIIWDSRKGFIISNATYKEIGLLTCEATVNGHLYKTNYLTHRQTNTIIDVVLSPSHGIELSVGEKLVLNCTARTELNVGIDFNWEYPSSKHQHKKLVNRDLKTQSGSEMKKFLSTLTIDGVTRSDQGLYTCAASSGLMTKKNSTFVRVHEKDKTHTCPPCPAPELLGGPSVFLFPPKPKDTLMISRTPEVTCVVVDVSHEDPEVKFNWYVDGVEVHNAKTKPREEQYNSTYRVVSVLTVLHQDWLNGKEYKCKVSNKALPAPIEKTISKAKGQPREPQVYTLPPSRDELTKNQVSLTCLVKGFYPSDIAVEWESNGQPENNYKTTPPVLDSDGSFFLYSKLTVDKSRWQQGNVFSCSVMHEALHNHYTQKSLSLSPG
Sequence of human VEGFA (Cat. No. Z03073, Genscript) (human) (P15692 other isoform, or with tags, fused parts or gaps limits assumed): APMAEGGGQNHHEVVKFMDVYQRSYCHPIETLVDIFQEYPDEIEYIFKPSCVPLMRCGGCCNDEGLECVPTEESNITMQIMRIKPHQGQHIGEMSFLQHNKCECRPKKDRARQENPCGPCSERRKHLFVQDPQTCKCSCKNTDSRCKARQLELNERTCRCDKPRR
Sequence of Conbercept eye injection (Fc fusion) (chain): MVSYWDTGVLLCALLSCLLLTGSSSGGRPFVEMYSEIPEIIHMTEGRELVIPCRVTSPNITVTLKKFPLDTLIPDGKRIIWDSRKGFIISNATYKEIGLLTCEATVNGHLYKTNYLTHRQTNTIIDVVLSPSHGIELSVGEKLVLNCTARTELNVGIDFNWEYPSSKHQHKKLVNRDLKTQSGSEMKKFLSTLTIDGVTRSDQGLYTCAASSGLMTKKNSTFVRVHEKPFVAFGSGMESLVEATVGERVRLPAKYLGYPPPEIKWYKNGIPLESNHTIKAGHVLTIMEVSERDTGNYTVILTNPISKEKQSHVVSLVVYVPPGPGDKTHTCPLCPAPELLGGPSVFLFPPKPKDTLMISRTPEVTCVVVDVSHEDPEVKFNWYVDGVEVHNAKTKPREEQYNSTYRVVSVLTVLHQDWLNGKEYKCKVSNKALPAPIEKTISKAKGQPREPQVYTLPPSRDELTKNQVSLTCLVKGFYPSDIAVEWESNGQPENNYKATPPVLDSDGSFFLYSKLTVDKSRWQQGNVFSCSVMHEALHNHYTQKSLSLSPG

| Substance | IC50 [1] [µg/mL] | IC50 [2] [nM] | Kd [3] [nM] | EC50 (read off the curve) [4] [µg/mL] | IC50 (inhibition of VEGFA-induced HUVEC proliferation, CellTiter-Glo) [5] [µg/mL] |
| --- | --- | --- | --- | --- | --- |
| Conbercept eye injection (Fc fusion) | 0.0169 | 16.9 |  |  |  |
| Eylea (Fc fusion) |  |  | 0.0361 | 0.07 | 0.0045 |
